Columns and labels:
[1] = molecular target: 1:1 8D6 Fab/IgE-Fc complex; assay: SPR; IgE-Fc captured on an 8D6 Fab surface (1:1 8D6 Fab/IgE-Fc complex); derCD23 injected at 10 to 0.156 uM; HBS-P with 5 mM CaCl2, 25 °C
[2] = molecular target: 2:1 8D6 Fab/IgE-Fc complex; assay: SPR; IgE-Fc captured on an 8D6 Fab surface, then saturated with 100 nM 8D6 Fab (2:1 8D6 Fab/IgE-Fc complex); derCD23 injected at 10 to 0.156 uM; HBS-P with 5 mM CaCl2, 25 °C
Chain of 2:1 8D6 Fab/IgE-Fc complex (heavy, as listed by the source, chain 1 of 2): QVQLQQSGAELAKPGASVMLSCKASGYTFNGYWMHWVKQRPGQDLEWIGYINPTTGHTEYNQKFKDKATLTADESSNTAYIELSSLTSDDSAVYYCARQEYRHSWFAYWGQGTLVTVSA
Chain of 2:1 8D6 Fab/IgE-Fc complex (light, as listed by the source, chain 2 of 2): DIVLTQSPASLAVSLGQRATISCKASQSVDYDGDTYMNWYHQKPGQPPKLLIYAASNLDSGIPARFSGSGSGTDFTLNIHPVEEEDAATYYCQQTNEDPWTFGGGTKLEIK

Chain of 1:1 8D6 Fab/IgE-Fc complex (heavy, as listed by the source, chain 1 of 2): as the sequence (heavy, as listed by the source, chain 1 of 2) above
Chain of 1:1 8D6 Fab/IgE-Fc complex (light, as listed by the source, chain 2 of 2): as the sequence (light, as listed by the source, chain 2 of 2) above

Kd [1]: 1700 nM
Kd [2]: 1700 nM
Substance: derCD23 (domain or fragment)

— paper PMC6070508
